Patent publication US20140178373A1 (TORAY INDUSTRIES, published 2014)

T1: CAPRIN-1 protein on the cell membrane surface of human cancer cell lines (human, UniProt Q14444 2-709)
T1 sequence (looked up): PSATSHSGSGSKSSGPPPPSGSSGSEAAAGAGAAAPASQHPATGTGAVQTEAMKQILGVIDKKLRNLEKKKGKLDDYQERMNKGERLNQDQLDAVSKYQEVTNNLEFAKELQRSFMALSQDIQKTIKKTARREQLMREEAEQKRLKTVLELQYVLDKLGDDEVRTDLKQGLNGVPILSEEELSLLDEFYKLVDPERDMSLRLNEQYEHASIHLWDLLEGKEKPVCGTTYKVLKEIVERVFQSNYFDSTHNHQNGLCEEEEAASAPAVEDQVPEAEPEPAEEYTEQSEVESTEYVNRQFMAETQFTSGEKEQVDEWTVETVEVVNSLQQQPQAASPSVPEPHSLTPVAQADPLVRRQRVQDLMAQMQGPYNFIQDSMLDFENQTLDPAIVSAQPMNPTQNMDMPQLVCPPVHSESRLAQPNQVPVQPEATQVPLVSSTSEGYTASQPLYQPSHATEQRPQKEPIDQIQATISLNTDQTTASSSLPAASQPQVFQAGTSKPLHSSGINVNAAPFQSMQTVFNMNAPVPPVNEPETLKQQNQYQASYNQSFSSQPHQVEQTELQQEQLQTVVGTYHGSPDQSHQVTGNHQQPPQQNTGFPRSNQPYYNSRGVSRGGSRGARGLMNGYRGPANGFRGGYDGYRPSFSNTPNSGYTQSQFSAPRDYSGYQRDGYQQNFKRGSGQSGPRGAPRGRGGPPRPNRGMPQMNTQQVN


Molecular target: T1, CAPRIN-1 protein on the cell membrane …
Test: cell-based or functional assay

| Binder | cytotoxic activity (ADCC) against MCF7, HCT-116, MIAPaCa-2, Caki-2 and QG56 | cytotoxic activity (ADCC) against all other cancer cells (19 further cell lines) |
| --- | --- | --- |
| human-mouse chimeric comparative antibody 1 (antibody) heavy: not shown light: DIQMTQSPASLSASVGETVTITCRASGNIHNYLAWYQQKQGKSPQLLVYNAKTLADGVPSRFSGSGSGTQYSLKINSLQPEDFGSYYCQHFWSTLTFGAGTKLELKRTVAAPSVFIFPPSDEQLKSGTASVVCLLNNFYPREAKVQWKVDNALQSGNSQESVTEQDSKDSTYSLSSTLTLSKADYEKHKVYACEVTHQGLSSPVTKSFNRGEC | < 5% | < 4% |
| human-mouse chimeric comparative antibody 3 (antibody) heavy: not shown light: DIQLTQSPASLSASVGETVTITCRASGNIHNYLAWYQQKQGKSPQLLVYNAKTLADGVPSRFSGSGSGTQYSLKINSLQPEDFGSYYCQHFWSTLTFGGGTKLEIKQTVAAPSVFIFPPSDEQLKSGTASVVCLLNNFYPREAKVQWKVDNALQSGNSQESVTEQDSKDSTYSLSSTLTLSKADYEKHKVYACEVTHQGLSSPVTKSFNRGEC | < 5% | < 4% |
| human-mouse chimeric comparative antibody 4 (antibody, human IgG1, kappa, V domains shown) VH: EVQLHQFGAELVKPGASVKISCKASGYTFTDYNMDWVKQSHGKSLEWIGDINPNYDSTSYNQKFKGKATLTVDKSSSTAYMELRSLTSEDTAVYYCARSRSYDYEGFAYWGQGTLVTVSA VL: SGDRVSLSCRASQSISNYLHWYQQKSHESPRLLIKYASQSISGIPSRFSGSGSGTDFTLSINSVETEDFGMYFCQQSNSWPYTFGAGTKLEIKQ | < 5% | < 4% |
| human-mouse chimeric comparative antibody 7 (antibody, human IgG1, kappa, V domains shown) VH: LQESGAELARPGASVKLSCKASGYTFTSYWMQWVKQRPGQGLEWIGAIYPGDGDTRYTQKFKGKATLTADKSSSTAYMQLSSLASEDSAVYYCARGEYGNYFAYWGQGTTVTVSS VL: TSDASLGERVTITCKASQDINSYLSWFQQKPGKSPKTLIYRANRLVDGVPSRFSGSGSGQDYSLTISSLEYEDMGIYYCLQYDEFPLTFGGGTKLEIKQ | < 5% | < 4% |
